Reference: patent US20090215666A1 (ONCOTHERAPY SCIENCE, published 2009)

Target: T1, HA-tagged PPP3CA (calcineurin A subunit, PP2B) (UniProt Q08209 1-521, limits assumed)
T1 construct: Exogenously expressed in COS7 cells and immunoprecipitated with anti-HA antibody; not shown: HA tag
Experiment: co-immunoprecipitation from co-transfected COS7 cells (anti-HA IP, anti-Flag blot)

B1: Flag-tagged ΔPDIIIT-C1958 (other, not shown: small tags and cut ends)
chain: MGLKMSCLKGFQMCVSSSSSSHDEAPVLNDKHLDVPPTPTGMMLPRDLGSTVWLDETGSCPDDGEIDPEA
notes: also called ΔPDIIIT mutant
- binding result: no binding
